B1: MLL3 ePHD6: extended PHD6 domain of MLL3 (protein)
chain: VWCRHCGATSAGLRCEWQNNYTQCAPCASLSSCPVCYRNYREEDLILQCRQCDRWMHAVCQNLNTEEEVENVADIGFDCSMCRPYMPASN
modifications: left off: GST, N-terminal, cleaved | His tag, N-terminal, cleaved
B2: MLL4 ePHD6: extended PHD6 domain of MLL4 (protein)
chain: VSCMQCGAASPGFHCEWQNSYTHCGPCASLVTCPICHAPYVEEDLLIQCRHCERWMHAGCESLFTEDDVEQAADEGFDCVSCQPYVVKPV
modifications: left off: GST, N-terminal, cleaved | His tag, N-terminal, cleaved
B3: MLL3_C: C terminus of MLL3 with the catalytic SET domain (protein)
chain: DHTFRVGSLIFHTIGQLLPQQMQAFHSPKALFPVGYEASRLYWSTRYANRRCRYLCSIEEKDGRPVFVIRIVEQGHEDLVLSDISPKGVWDKILEPVACVRKKSEMLQLFPAYLKGEDLFGLTVSAVARIAESLPGVEACENYTFRYGRNPLMELPLAVNPTGCARSEPKMSAHVKRFVLRPHTLNSTSTSKSFQSTVTGELNAPYSKQFVHSKSSQYRKMKTEWKSNVYLARSRIQGLGLYAARDIEKHTMVIEYIGTIIRNEVANRKEKLYESQNRGVYMFRMDNDHVIDATLTGGPARYINHSCAPNCVAEVVTFERGHKIIISSSRRIQKGEELCYDYKFDFEDDQHKIPCHCGAVNCRKWMN
modifications: left off: FLAG, end not stated, kept
notes: C terminus of MLL3 with the catalytic SET domain

Experiments:
[1] = Gel filtration, oligomeric state in solution; assay type: physicochemical; conditions: Superdex200 10/300 GL, 20 mM Tris pH 7.5, 150 mM NaCl, 50 μM ZnCl2, 1 mM DTT
Description: Supplementary Fig. 3 Superimposition of gel-filtration curves of PHD6 and ePHD6 domains of MLL3 and MLL4. Gel filtration chromatography of MLL3 ePHD6 (red), PHD6 (pink), MLL4 ePHD6 (brown), PHD6 (green) and protein molecular weight standards (blue, Bio-Rad). Samples were loaded to the Superdex200 10/300 GL (GE Healthcare) column in the buffer containing 20 mM Tris, pH 7.5, 150 mM NaCl, 50 μM ZnCl2,and1mMDTT. […]

[2] = tested on: recombinant nucleosomes (histone H3K4); experiment: In vitro histone methyltransferase (HMT) assay of MLL3/MLL4 constructs; assay type: biochemical; conditions: recombinant nucleosomes 0.5 μg, 2.5 μCi [3H]-SAM, 30 °C, 16 h, autoradiography (Fig. 3b, c)
Description: Mammalian expression plasmids encoding different fusions of MLL3 PHD and SET domains were subcloned into the pFLAG-CMV2 vector (Sigma-Aldrich, E7033) and were transiently expressed in HEK 293T cells (ATCC® ACS-4500™) by using Lipofectamine 2000 (ThermoFisher Scientific, 11668027) according to manufacturer’s protocol. Two days after transfection, cells were harvested and then lysed by mammalian lysis buffer (20 mM Tris-HCl, 137 mM NaCl, 1.5 mM MgCl2, 1 mM EDTA, 10% glycerol, 1% Triton X-100, 0.2 mM PMSF, 1 μg mL^−1 aprotinin, 2.5 μg mL^−1 leupeptin, and 1 μg mL^−1 pepstatin at pH 8.0). FLAG immunoprecipitation (FLAG IP) was performed in a similar way as described previously. In brief, total cell lysates were incubated with anti-FLAG M2 Affinity Gel (Sigma-Aldrich, A2220) in 4 °C for 5 h and were extensively washed with BC500 (20 mM Tris-HCl, 500 mM KCl, 1.5 mM MgCl2, 0.2 mM EDTA, 10% glycerol, 0.2 mM PMSF at pH 8.0). […]
HMT assay was performed according to a previously described method with minor modifications. […] The signals for HMT activity were detected by autoradiography. The input of the MLL3/4 proteins and nucleosomes were detected by mouse monoclonal anti-FLAG M2 (Sigma-Aldrich, F3165, 1:1000) and rabbit polyclonal anti-H3 antibody (Abcam, ab1791, 1:1000), respectively. […]

Molecule	oligomeric state in solution [1]	nucleosomal methyltransferase activity [2]
B1	monomer in solution	
B2	dimer in solution	
B3		did not show any detectable nucleosomal methylation activity
